Data on eleven compounds can be found in paper PMC4072508, “Genome-Wide Prediction and Validation of Peptides That Bind Human Prosurvival Bcl-2 Proteins” (PLoS Computational Biology, 2014).

Several values for one entry are separate records, joined by “and”; a condition that tells them apart may be missing. Equal values may be shown once. Residues, ends and D or L forms follow the SMILES beside them. *: point of attachment. 5FAM = O=C1OC2(c3ccc(O)cc3Oc3cc(O)ccc32)c2ccc(C(=O)*)cc21

The target of one experiment is T1, Bcl-xL (Homo sapiens, UniProt Q07817).
T1 construct: myc-Bcl-xL SPOT array & FP; made in house
T1 sequence (Q07817 with tags, fused parts or gaps): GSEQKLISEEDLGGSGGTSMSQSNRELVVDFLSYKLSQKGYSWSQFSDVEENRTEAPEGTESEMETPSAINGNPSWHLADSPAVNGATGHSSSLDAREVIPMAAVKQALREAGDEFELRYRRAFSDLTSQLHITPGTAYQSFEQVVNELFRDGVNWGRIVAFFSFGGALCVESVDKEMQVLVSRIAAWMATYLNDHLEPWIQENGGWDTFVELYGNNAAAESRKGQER
The experiment is described as follows: LUMIER full-length protein interaction. Format: binding. Particulars: LUMIER results for Bcl-xL; for z-score 1.1: experiment 1, duplicate 1; for z-score 1.2: experiment 1, duplicate 2; for z-score 2.1: experiment 2, duplicate 1; for z-score 2.2: experiment 2, duplicate 2. The procedure: (§1) The LUMIER assay was carried out as previously described with the following modifications. A stable cell line expressing receptor tagged on the N-terminus with Nanoluc luciferase was created (the prey). […] Each bait construct was transfected into the receptor-luciferase cells in a 96-well format and after 48 hours the cells were lysed and transferred to 384-well plates coated with anti-FLAG. After incubation and washing, luminescence was measured to quantify how much receptor-luciferase was captured by the bait protein. Anti-Flag ELISA signal was used to exclude bait proteins that were not expressed. The experiment was carried out two times, each in duplicate.

A further experiment has as its target T2, Mcl-1 (Homo sapiens, UniProt Q07820).
T2 construct: myc-Mcl-1 SPOT array & FP; made in house
The experiment is described as follows: LUMIER full-length protein interaction. Format: binding. To be noted: LUMIER results for Mcl-1, Z-score relative to Gaussian fit of the data; for z-score 1.2: experiment 1, duplicate 2; for z-score 2.1: experiment 2, duplicate 1; for z-score 2.2: experiment 2, duplicate 2. As to the method:
as §1

The mark [1] stands for this setting: Z-score relative to Gaussian fit of the data.
Where [2] appears, read: Z-score of the interaction relative to the Gaussian fit of the data.

T2 sequence (Q07820 with tags, fused parts or gaps): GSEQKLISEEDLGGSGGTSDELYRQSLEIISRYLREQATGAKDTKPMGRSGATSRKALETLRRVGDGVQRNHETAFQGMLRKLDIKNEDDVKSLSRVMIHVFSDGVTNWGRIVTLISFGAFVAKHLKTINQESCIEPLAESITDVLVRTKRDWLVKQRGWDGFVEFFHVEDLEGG

With `CC[C@H](C)[C@H](NC(=O)[C@@H]1CCCN1C(=O)[C@H](CCCNC(=N)N)NC(=O)[C@H](CCCNC(=N)N)NC(=O)[C@@H]1CCCN1C(=O)[C@H](CC(N)=O)NC(=O)[C@H](C)NC(=O)[C@H](CC(C)C)NC(=O)[C@H](CCSC)NC(=O)[C@H](CC(=O)O)NC(=O)[C@H](CO)NC(=O)[C@H](Cc1c[nH]c2ccccc12)NC(=O)[C@H](Cc1c[nH]cn1)NC(=O)[C@H](CCCNC(=N)N)NC(=O)[C@H](CC(C)C)NC(=O)[C@H](CCC(=O)O)NC(=O)[C@H](C)NC(=O)CNC(=O)[C@@H](NC(=O)[C@H](CO)NC(=O)[C@H](CC(N)=O)NC(=O)[C@H](Cc1ccc(O)cc1)NC(=O)CNC(=O)[C@@H](NC(=O)[C@H](Cc1ccccc1)NC(=O)c1ccc2c(c1)C(=O)OC21c2ccc(O)cc2Oc2cc(O)ccc21)C(C)C)[C@@H](C)O)C(=O)N[C@@H](C)C(N)=O` [SYT1] (5FAM-FVGYNSTGAELRHWSDMLANPRRPIA-NH2), on Bcl-xL (setting [1]), the “z-score 1.1” value is -0.3372, the “z-score 1.2” value was -0.9542, the “z-score 2.1” value stood at 2.574 and the “z-score 2.2” value was found to be 0.6781. At Mcl-1, the “z-score 1.2” value is recorded as -0.6598, the “z-score 2.1” value is recorded as 0.132 and the “z-score 2.2” value was -0.2801.
For ACN9 (LQLHRVLPPDLKSLGDQYVKDEFRRH), in the experiment with Bcl-xL (setting [1]), the “z-score 1.1” value was 2.487, the “z-score 1.2” value is on record as -0.8795, the “z-score 2.1” value amounted to 0.2924 and the “z-score 2.2” value was found to be 1.441. In the experiment with Mcl-1, the “z-score 1.2” value stood at 0.7914, the “z-score 2.1” value is 1.721 and the “z-score 2.2” value was determined as 2.179.
In the case of ATP6AP2 (RDASKILVDALQKFADDMYSLYGGNA), the “z-score 2.1” value in the experiment with Bcl-xL (setting [1]) was 1.607 and 2.423. Also, in the experiment with Mcl-1, the “z-score 1.2” value is 0.9409 and 0.8269; the “z-score 2.1” value was 2.599 and 2.298; the “z-score 2.2” value was 1.567 and 1.468.
For BAK1 (SSTMGQVGRQLAIIGDDINRRYDSEF), in the experiment with Bcl-xL (setting [2]), the “z-score 1.1” value was 0.8883, the “z-score 1.2” value was found to be 2.921, the “z-score 2.1” value came to 1.064 and the “z-score 2.2” value amounted to 1.82. Further, in the experiment with Mcl-1, the “z-score 1.2” value was determined as 6.48, the “z-score 2.1” value came out at 5.961 and the “z-score 2.2” value came to 6.848.
With BBS10 (RMIVDCVSSHLKKTGDGAKTFIIFLC), in the experiment with Bcl-xL (setting [1]), the “z-score 1.1” value was 1.141 and 1.702. Besides, the “z-score 2.1” value with Mcl-1 is 0.6411 and 1.2239.
For the compound BCL2L11 (MRPEIWIAQELRRIGDEFNAYYARRV), in the experiment with Mcl-1, the “z-score 1.2” value is given as 9.774, the “z-score 2.1” value turned out to be 11.6048 and the “z-score 2.2” value is listed as 12.4336.
Consider C7orf26 (FDHMVPLVEEINRLADELNPLNASQE), for which, in the experiment with Bcl-xL (setting [1]), the “z-score 1.1” value was found to be 0.6785, the “z-score 1.2” value is listed as 0.5183, the “z-score 2.1” value is 0.5393 and the “z-score 2.2” value turned out to be 0.7734. For the same compound, in the experiment with Mcl-1, the “z-score 1.2” value was 0.6167, the “z-score 2.1” value was 1.59 and the “z-score 2.2” value was 1.598.
Consider CASP8 (PFKKMDFSRNLYDIGEQLDSEDLASL), for which, in the experiment with Bcl-xL (setting [1]), the “z-score 1.1” value was 0.03556, the “z-score 1.2” value was -1.065, the “z-score 2.1” value was 0.3161 and the “z-score 2.2” value is -0.06353. Also, in the experiment with Mcl-1, the “z-score 1.2” value is listed as -0.8504, the “z-score 2.1” value was -0.06643 and the “z-score 2.2” value is recorded as -0.03009.
Regarding CCDC57 (QAGPVSSGLALRKLGDRVQLLNLLVT), in the experiment with Bcl-xL (setting [2]), the “z-score 1.1” value is 2.807, the “z-score 1.2” value stood at 1.916, the “z-score 2.1” value turned out to be 0.2364 and the “z-score 2.2” value worked out at 0.8316. Further, in the experiment with Mcl-1, the “z-score 1.2” value came out at 0.8015, the “z-score 2.1” value is given as 1.282 and the “z-score 2.2” value was 1.811.
For the compound COL2A1 (VLLTLLVAAVLRCQGQDVQEAGSCVQ), in the experiment with Bcl-xL (setting [1]), the “z-score 1.1” value stood at 1.515, the “z-score 1.2” value is given as -1.523, the “z-score 2.1” value was 1.61 and the “z-score 2.2” value is given as 2.141. In the experiment with Mcl-1, the “z-score 2.1” value stood at 1.806 and the “z-score 2.2” value is reported as 2.677.
In the case of FBXW5 (LTETSLISGNLHRIGDITSCSVLWLN), in the experiment with Bcl-xL (setting [1]), the “z-score 2.1” value was 1.152 and 2.217.
